For test [1], the target named is T1, alkylhydroperoxide-reductase of H. pylori (26 kDa-protein) (Helicobacter pylori, UniProt P21762 1-198).
T1 construct: Purified as an oligomer; also called 26 kDa-antigen; Alkylhydroperoxide reduktase
T1 sequence (looked up): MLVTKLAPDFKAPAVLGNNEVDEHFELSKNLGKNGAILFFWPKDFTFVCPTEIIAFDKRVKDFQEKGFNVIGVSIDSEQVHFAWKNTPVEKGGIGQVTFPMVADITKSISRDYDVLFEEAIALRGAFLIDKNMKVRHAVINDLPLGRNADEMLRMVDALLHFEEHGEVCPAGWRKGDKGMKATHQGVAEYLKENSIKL
In words: sandwich ELISA: polyclonal rabbit anti-H. pylori antigen as catcher, antigen diluted 1:2 from 50 ng/ml, mAb supernatant as detector; lowest antigen concentration with extinction >= 2x control. (In general: In an ELISA, binding on a coated surface is turned into a signal by an enzyme label.)
Experimental: (§1) Between the single steps the ELISA plate was washed 2 to 3 times with 300 μl PBS with 0.025% Tween (washing buffer) (vol.:vol.). The ELISA plates (MaxiSorb; Nunc) were coated for 1 hour at 37° C. with 100 μl of a solution of a polyclonal rabbit-anti-H. pylori antigen (pAK; approx. 10 μg antibody/ml carbonate buffer, 0.1 M, pH 9.5). In order to block the binding-sites that are still free 200 μl 150 mM PBS with 2% skimmed-milk powder (weight:volume) were pipetted per dish and incubated for 30 min at room temperature. 50 ng/ml purified H. pylori antigens solved in 150 mM PBS were diluted adding 0.1% skimmed-milk powder in 1:2 steps. The buffer served as a negative control. Then, 100 μl culture supernatant diluted 1:10 of the mAK against the same antigen, which is to be analysed, was added and incubated for 30 for 60 min at room temperature. […] The lowest concentration in which an extinction was still detected that was larger than or the same as twice the control was accepted as detection limit.

Test [2] addresses β-urease (large subunit) of H. pylori (Helicobacter pylori, UniProt P69996 1-569). Described as above.
Experimental: as §1
For test [3], the target named is H. pylori urease (oligomeric, purified) (Helicobacter pylori, UniProt P14916 1-238; P69996 1-569). In words: SPR (BIAcore), mAb captured by rabbit anti-mouse antibody, H. pylori antigen injected; unit inferred. (SPR reads the build-up and loss of mass on a sensor chip optically.)
Experimental: First, a polyclonal rabbit-anti-mouse antibody was immobilised on the dextran matrix of the BIAcore CM5 glass carrier chip. By adding the first H. pylori antigen-specific monoclonal antibody (1. MAK; 100 μg/ml; 10 μl), it reacted with the immobilised catching antibody and the respective change was measured at the detector (ΔRU₁; RU Resonance Units). After adding the H. pylori antigen (45 μg/ml; 5 μl), it reacted with the first mAK. Then, the remaining free catching antibody was blocked with an unspecific mouse-antibody (1 mg/ml; 10 μl) and oligomeric epitopes by adding another first mAK (100 μg/ml; 10 μl). After the reaction then following of the second H. pylori-antigen-specific antibody (2nd mAK; 100 μg/ml; 10 μl) with the bound antigen, the change in the signal of the detector (ΔRU₂) was determined anew and was compared in percentage to the change at the detector after adding the 1st mAK (ΔRU₂/ΔRU₁). A ratio of ΔRU₂/ΔRU₁<10% indicated overlapping epitopes.
For a further test, the target named is T2, Hsp60 of H. pylori (Helicobacter pylori, UniProt P42383 1-546).
T2 construct: Purified as an oligomer
Put plainly: sandwich ELISA: polyclonal rabbit anti-H. pylori antigen as catcher, antigen diluted 1:2 from 50 ng/ml, mAb supernatant as detector; lowest antigen concentration with extinction >= 2x control.

β-urease (large subunit) of H. pylori, sequence (P69996 whole entry): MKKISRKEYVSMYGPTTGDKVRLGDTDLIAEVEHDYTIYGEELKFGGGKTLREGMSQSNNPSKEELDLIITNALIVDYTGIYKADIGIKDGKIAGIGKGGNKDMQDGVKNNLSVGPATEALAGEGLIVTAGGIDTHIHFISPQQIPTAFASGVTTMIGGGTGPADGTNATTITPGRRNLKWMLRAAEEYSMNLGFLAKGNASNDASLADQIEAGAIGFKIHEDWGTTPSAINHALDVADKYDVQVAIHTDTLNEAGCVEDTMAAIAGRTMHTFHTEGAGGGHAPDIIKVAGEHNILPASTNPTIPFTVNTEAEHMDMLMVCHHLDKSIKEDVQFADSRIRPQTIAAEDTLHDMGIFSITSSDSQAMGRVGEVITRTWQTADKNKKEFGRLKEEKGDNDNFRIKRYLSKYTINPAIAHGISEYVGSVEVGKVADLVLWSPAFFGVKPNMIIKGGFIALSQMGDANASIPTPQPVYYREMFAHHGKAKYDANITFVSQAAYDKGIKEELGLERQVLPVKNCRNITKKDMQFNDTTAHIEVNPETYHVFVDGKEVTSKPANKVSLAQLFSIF
T2 sequence (P42383 whole entry): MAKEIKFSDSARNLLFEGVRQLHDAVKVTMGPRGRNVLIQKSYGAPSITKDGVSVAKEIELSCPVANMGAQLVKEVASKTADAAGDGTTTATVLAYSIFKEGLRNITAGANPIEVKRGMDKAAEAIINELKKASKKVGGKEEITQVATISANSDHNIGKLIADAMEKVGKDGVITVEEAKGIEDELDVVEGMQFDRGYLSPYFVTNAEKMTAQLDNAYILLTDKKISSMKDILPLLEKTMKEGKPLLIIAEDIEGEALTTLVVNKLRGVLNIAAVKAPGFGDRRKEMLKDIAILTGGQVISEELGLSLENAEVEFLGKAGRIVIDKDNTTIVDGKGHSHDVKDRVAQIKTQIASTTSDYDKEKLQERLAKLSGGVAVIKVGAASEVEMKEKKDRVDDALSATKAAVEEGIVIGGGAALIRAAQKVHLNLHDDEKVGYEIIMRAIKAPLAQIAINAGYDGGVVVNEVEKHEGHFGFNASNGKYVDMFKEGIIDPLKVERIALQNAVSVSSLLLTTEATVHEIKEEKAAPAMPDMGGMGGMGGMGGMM
H. pylori urease (oligomeric, purified), sequence (P14916 whole entry, chain 1 of 2): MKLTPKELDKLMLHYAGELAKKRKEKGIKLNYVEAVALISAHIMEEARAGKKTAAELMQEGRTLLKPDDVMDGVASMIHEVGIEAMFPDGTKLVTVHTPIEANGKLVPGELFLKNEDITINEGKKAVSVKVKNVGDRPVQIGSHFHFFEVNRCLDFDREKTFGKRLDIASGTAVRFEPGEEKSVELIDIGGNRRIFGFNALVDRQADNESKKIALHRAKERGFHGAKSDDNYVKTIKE
H. pylori urease (oligomeric, purified), sequence (P69996 whole entry, chain 2 of 2): as the sequence (P69996 whole entry) above
Experimental for Hsp60 of H. pylori: as §1

B1: HP15m/3E8-D9-D6 (antibody, IgG1, V domains shown)
VH: VQLLEESGGGLVQPTGSLKLSCAASGFTFNSYAMYWVRQAPGKGLEWVARIRSKSDNYATYYANSVKDRLTISRDDSQNMLYLQMNNLKTEDTAMYYCVRDHDKFPFYYALDYWGPGTLVTVSS
VL: ELVLTQSPTIMSASLGERVTMTCTASSSVSSSYLHWYQQKPGSSPKLWIYSTSNLASGVPVRFSGSGSVTSYSLTISSMEAEDAATYYCHQYHRSPPTFGGGTKLEIK
notes: Murine; also called DSM ACC2355
Regarding B1, the “NWG (detection limit)” value in test [1] came to 0.6 ng Ag/ml.

B2: HP8m/4H5-D4-C9 (antibody, V domains shown)
VH: VQLLEQSGAELVKPGASVKISCKASGYAFSTSWMNWVKQRPGKGLEWIGRIYPGDGDTNYNGKFKGKATLTADKSSSTAYMQLNSLTSEDSAVYFCVREDAYYSNPYSLDYWGQGTSVTVSS
VL: DILLTQSPAILSVSPGERVSFSCRASQSIGTRIHWYQQRTNGSPRLLIKYGSESISGIPSRFSGSGSGTDFSLSINSVESEDIADYYCQQSNTWPLTFGAGTKLELK
notes: also called DSM ACC2360; first monoclonal antibody that is specific to urease
The term koff denotes a measure of how fast the partners let go of each other. A high value points to fast dissociation. With B2, in test [2], the “NWG (detection limit)” value worked out at 0.6 ng Ag/ml. The koff in test [3] was 4.5e-06 s⁻¹.

B3: HP9.1m/3C2-F8-E2 (antibody, mouse IgG1, V domains shown)
VH: VQLLEESGGGLVKPGGSLQLSCSASGFTFSSHFMSWVRQTPEKRLEWVASISSGGDSFYPDSLKGRFAISRDNARNILFLQMSSLRSEDSAMYFCTRDYSWYALDYWGQGTSVTVSS
VL: ELQMTQSPSSLSASLGDTITITCHASQNINVWLSWYQQKPGDIPKLLIYKASNLHTGVPSRFSGSGSGTGFTLVISSLQPEDIATYYCQQGRSYPLTFGAGTKLELK
notes: also called DSM ACC2362; second monoclonal antibody that is specific to urease
B3: the “NWG (detection limit)” value in test [2] was 1.2 ng Ag/ml.

B4: HP16m/2A5-E6-E5 (antibody, mouse IgG1, V domains shown)
VH: VQLLEESGPGLVAPSQSLSITCTVSGFSLSRYSVHWVRQPPGKGLEWLGMIWGGGSTDYNSGLKSRLSISNDNSKSQVFLKMNSLQTDDTAIYYCARNMGGRYPDYFDYWGQGTTLTVSS
VL: DIVLTQSPASLAVSLGQRATISCRASKSVSTSGYSYIHWYQQKPGQPPKLLIFLASNLESGVPARFSGSGSGTDFTLNIHPVEEEDAATYHCQHSRELPLTFGAGTKLELK
notes: also called DSM ACC2356
Take B4: the “NWG (detection limit)” value with Hsp60 of H. pylori stood at 3 ng Ag/ml.

The values are drawn from patent US20070009975A1 (DAKOCYTOMATION DENMARK A S, published 2007).
